# Data reported in publication PMC3791407, “Structural Rearrangement in an RsmA/CsrA Ortholog of Pseudomonas aeruginosa Creates a Dimeric RNA-Binding Protein, RsmN”.
# Like-named read-outs stand apart in the source and are kept apart here.
# What was measured:
# [1] = target: RsmN R62A (Pseudomonas aeruginosa PAO1) (UniProt Q02EI1); test: ITC; conditions: ITC: 125 uM RNA titrated into protein, 25 mM potassium phosphate pH 7, 50 mM NaCl, 298 K; SEC: 50 uM protein, 100 uM RNA, same buffer
# [2] = target: RsmN (Pseudomonas aeruginosa PAO1) (UniProt Q02EI1); test: ITC
# [3] = target: RsmN (His6-Thb-RsmN) (Pseudomonas aeruginosa PAO1); test: SEC + native MS; gel filtration analysis and ESI-MS of the purified His-tagged RsmN construct; conditions in the Supplemental Information
# RsmA = RsmA (UniProt O69078 1-61); test: ITC; 1 hairpin per monomer; ITC: 125 uM RNA titrated into protein, 25 mM potassium phosphate pH 7, 50 mM NaCl, 298 K; SEC: 50 uM protein, 100 uM RNA, same buffer; conditions: protein: recombinant, tags: N-terminal His6-thrombin site (LVPRGS), chain copies: 2, 6-nt loop AAGGAU, G5-C12 closing pair
molecule,measurement,setting,value
CCCCGAAGGAUCGGGG [RsmZ-2 hairpin],binding signal (fold lower affinity than wild type),[1],> 1000
same,Kd,"[2]; ITC: 125 uM RNA titrated into protein, 25 mM potassium phosphate pH 7, 50 mM NaCl, 298 K, SEC: 50 uM protein, 100 uM RNA, same buffer",276 nM
GCGCAGGAAGCGC [RsmY-1 hairpin],Kd,[2],526 nM
RsmN (His6-Thb-RsmN) (natural protein),stoichiometry N,[3],2
UAAAAGGAAUA [PA1003/pqsR ribosome binding site],Kd,[2],704 nM
CCCCGAAGGAUCGGGG (structured_RNA) [RsmZ-2 hairpin],Kd,RsmA,264 ± 43 nM
